The target of this assay is Escherichia coli β sliding clamp (Escherichia coli) (UniProt P0A988).
Sequence of UniProt P0A988 (P0A988 whole entry): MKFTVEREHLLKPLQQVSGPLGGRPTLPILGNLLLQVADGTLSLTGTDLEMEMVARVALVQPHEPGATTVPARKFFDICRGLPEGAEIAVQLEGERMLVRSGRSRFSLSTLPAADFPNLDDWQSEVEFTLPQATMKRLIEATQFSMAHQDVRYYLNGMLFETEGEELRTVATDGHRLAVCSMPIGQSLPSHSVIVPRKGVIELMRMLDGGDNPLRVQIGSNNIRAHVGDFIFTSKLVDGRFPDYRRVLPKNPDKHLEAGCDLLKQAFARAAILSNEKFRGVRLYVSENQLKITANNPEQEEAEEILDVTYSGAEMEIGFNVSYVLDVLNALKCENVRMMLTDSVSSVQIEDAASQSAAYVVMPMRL

For the substance “Acidiphilium IS1634 transposase, wild type (enzyme)”, the papillae in the in vivo papillation assay of transposition in E. coli DH5α (quantification for 8 colonies) was 3.15.

The values above are taken from article PMC4549789.
